The results in this text go back to doi:10.1101/2022.01.10.475532 (bioRxiv, 2022).

The test has as its target recombinant S trimer protein of the WT SARS-CoV-2 strain (SARS-CoV-2 WT (Wuhan-Hu-1), UniProt P0DTC2, stabilised). As to the kind of experiment: ELISA. On the technique in general: In an ELISA, binding on a coated surface is turned into a signal by an enzyme label.

B1: MAb S3H3 (IgG) (antibody, V domains shown)
VH: QVQLQQPGAELVRPGASVKLSCKASGYSFTRFWMNWVKQRPGQGLEWIGMIHPSDSETRLNQKFKDKATLTVDKSSTTAYMQLSSPTSEDSAVYYCARKDYDYDAWFAYWGQGTLVTVSA
VL: DIVLTQSPASLAVSLGQRATISCRASKSVSASVYSYMHWYQQKPGQPPKLLIYLASSLESGVPARFSGSGSGTDFTLNIHPVEEEDAATYYCHHSRELPPAFGGGTKLEIK
For the molecule B1, the binding result was “binds”.
